Source: US20240425571A1, “GLYCOPROTEIN A REPETITIONS PREDOMINANT (GARP)-BINDING ANTIBODIES AND USES THEREOF” (OHIO STATE INNOVATION FOUNDATION, priority 2021, published 2024)
Changes are numbered by the printed parent chain.

T1: antigen (Homo sapiens, UniProt Q14392)
T1 sequence (Q14392 20-662): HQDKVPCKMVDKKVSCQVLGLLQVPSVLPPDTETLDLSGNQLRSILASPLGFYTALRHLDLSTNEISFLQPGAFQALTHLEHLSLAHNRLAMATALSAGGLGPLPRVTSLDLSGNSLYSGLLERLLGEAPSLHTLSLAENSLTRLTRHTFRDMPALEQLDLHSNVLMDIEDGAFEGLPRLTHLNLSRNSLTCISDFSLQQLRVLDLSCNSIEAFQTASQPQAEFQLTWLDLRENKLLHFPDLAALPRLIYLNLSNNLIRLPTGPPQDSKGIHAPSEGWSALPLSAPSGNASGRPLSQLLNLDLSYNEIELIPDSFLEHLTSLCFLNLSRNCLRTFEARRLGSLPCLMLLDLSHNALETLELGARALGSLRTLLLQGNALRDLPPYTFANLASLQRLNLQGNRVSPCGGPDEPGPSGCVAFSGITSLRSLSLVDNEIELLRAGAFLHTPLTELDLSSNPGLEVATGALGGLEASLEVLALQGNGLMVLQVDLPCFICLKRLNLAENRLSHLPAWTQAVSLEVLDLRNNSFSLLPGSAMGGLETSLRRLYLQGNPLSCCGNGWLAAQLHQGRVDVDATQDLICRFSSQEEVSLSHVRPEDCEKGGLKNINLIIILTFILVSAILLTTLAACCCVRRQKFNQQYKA

B1: H2L1: humanized PIIO-1 antibody, VH SEQ ID NO: 21 and VL SEQ ID NO: 23 (antibody, V domains shown)
VH: QVQLQESGPGLVKPSQTLSLTCTVSGYSITSDYAWNWIRQFPGNKLEWMGYISYSGSTSYTPSLKSRITISRDTSKNHFFLKLSSVTAADTAVYYCAKSGGDYYGSSSYWYFDVWGQGTMVTVSS
VL: DIVLTQSPSSLAVSLGERATMNCKSSQSLLNSRSQKNYLAWYQQKPGQPPKLLIYGASTRGSGVPDRFSGSGSGTDFTLTISSLQAEDVAVYYCQNDHSYPFTFGQGTKLEIKR
B2: H1L1: humanized PIIO-1 antibody, VH SEQ ID NO: 20 and VL SEQ ID NO: 23 (antibody, V domains shown)
VH: B1 VH with I68V, F80S
VL: B1 VL

What was measured:
[1] = Thermostability by DSF/SLS (UNcle); assay type: physicochemical; conditions: for SLS Tagg 266: SLS at 266 nm; for SLS Tagg 473: SLS at 473 nm; for DSF TM2 / DSF Tm1: ramp 1° C./min, 20° C. to 95° C.
Procedure: Developability Analysis for PIIO-1 humanization leads. Antibodies were analyzed for thermostability by DSF/SLS. Samples were submitted to the UNcle system (Unchained Labs) for analysis. A temperature ramp of 1° C./min was performed with monitoring from 20° C. to 95° C. for DSF and SLS. UNcle measures SLS at 266 nm and 473 nm. Tm and Tagg were calculated and analyzed by using the UNcle Analysis Software. DSF: Differential scanning fluorimetry; SLS: Static light scattering; Tm: Melting temperature; Tagg 266: Thermal aggregation when SLS at 266 nm; Tagg 473: Thermal aggregation when SLS at 473 nm. A summary is shown below in Table F:
IgG is a multi-domain structure and each domain has its own melting Temperature (Tm). […] Fabs have Tm in a wide range, generally about 50-85° C., due to large sequence variation. Therefore, the Tm values measured by various analytical techniques are usually “apparent” transition temperatures rather than the real Tm for each domain. In the case of whole IgG, there are often 2-3 Tm values in DSF measurement, presenting some challenge in determining which Tm represents which domain.
Tagg is the temperature at which SLS starts to detect aggregation particles. Tagg266 measures SLS at 266 nm, which is more sensitive and suitable to detect smaller aggregation particles. Tagg473 measures SLS at 473 nm and is better to detect larger particles.

[2] = Aggregation potential by DLS analysis; assay type: physicochemical; conditions: for Peak 1 Mass / Peak 1 Mode Diameter / Peak 1 PDI / Peak 2 Mass: DLS at 25° C.
Procedure: Aggregation potential by DLS analysis. DLS was performed on UNcle system (Unchained Labs). DLS was measured at 25° C. Data was calculated and analyzed using UNcle Analysis Software. DLS: Dynamic light scattering PDI: Polydispersity index, PDI=(standard deviation/mean hydrodynamic radius).
Dynamic Light Scattering (DLS) is used to detect aggregation in the antibody sample. “Mode diameter” is protein particle diameter and “mass percentage” is the amount of each size fraction in percentage. “PDI” is Polydispersity Index; the higher this index, the more polydispersity in the sample is. […] Peak 1 is the major peak and represents the IgG monomer. The inventor takes “Peak 1 mass percentage” and “PDI” value into consideration in selecting a lead.

antigen = target: T1, antigen; experiment: Label-free kinetic binding assay on Gator; conditions: for Rmax / koff / kon: IgG 2 μg/ml on anti-human Fc probes, antigen 5 μg/ml
Procedure: Affinity measurement. Label-free kinetic binding assay was performed on Gator (similar to Octet).
Methods. Affinity was measured on Gator (ProbeLife, Palo Alto). In brief, the purified IgG sample was diluted in K buffer at 2 μg/ml, and the antigen was diluted at 5 μg/ml. The antibody-loaded anti-human Fc probes were dipped in antigen wells for 5 mins and then moved to K buffer wells for 5 mins. In the whole process, the sample plate was shaken at 1,000 rpm. The data analysis was carried out using Gator software (ProbeLife).

[3] = Non-reducing CE-SDS (heterogeneity); assay type: physicochemical
Procedure: (§1) Analysis of the heterogeneity by Capillary Electrophoresis (CE). The sample was prepared in reducing and non-reducing labeling buffer before being submitted to the CE analysis. A summary of the Reducing-CE-SDS and Non-Reducing-CE-SDS results are shown in FIG. 13A/Table H and FIG. 13B/Table I, respectively: […]

[4] = Reducing CE-SDS (heterogeneity); assay type: physicochemical; conditions: Reducing-CE-SDS
Procedure: as §1

Ag(−) cell = experiment: FACS analysis with Ag(−) cell (non-specific binding); conditions: 5 ug/ml
Procedure: Methods—FACS analysis. Cell preparation: Cell were harvested and washed with PBS+2% FBS for one time. Cell density was adjusted to 1.5E6/mL in PBS/2% FBS. Cell were added to 96 U-bottom well plates at 100 μL/well. Antibody samples preparation: Antibody in supernatant was adjusted to 10 μg/mL using PBS+2% FBS, with serial 5 times dilution performed to obtain 3 concentrations of antibody solution. The blank was PBS+2% FBS. Antibody solutions were placed into 96 U-bottom well plates at 100 μL/well in the same arranging pattern as the cell preparation. Incubation: The antibody samples (100 μl) were mixed with the cells (100 μl), and incubated at RT for 1 h, then centrifuged the plate for 3 min at 1000 rpm (swing bucket). The supernatant was pipetted and the cells were washed with PBS+2% FBS for one time. Incubation with the secondary antibody: Cy3-Conjugated AffiniPure Goat Anti-Human IgG was diluted 250× by PBS+2% FBS, and added to the 96 U-bottom well plate with 100 μl/well, then incubated at RT for 30 min. After that, the plate was centrifuged at 1000 rpm for 3 min and the supernatant was pipetted out. The cell was washed with PBS+2% FBS twice. Cells were re-suspended in 200 μl PBS+2% FBS and analyzed on FACS. The MFI of total live cells were used as binding signal.
Methods—heat treatment. Culture supernatant was serial diluted to the indicated concentration of IgG with cell media and heated at 70° C. for 5 mins on a PCR machine, then quickly cooled down to room temperature.

Baculovirus = Baculovirus (BV) ELISA for non-specific binding
Procedure: Baculovirus (BV) ELISA was employed as a preliminary assay to evaluate antibody's potential nonspecific binding risk.
In Baculovirus (BV) ELISA, the inventor used Rituxan Mab as reference. […] If a clone only has binding on BV, but not on 293 cells, it will be considered as having a low risk of non-specific binding.
Methods—Baculovirus ELISA. Plates are coated with 50 μl of 1:500 diluted Baculovirus sample in PBS in each well. Plates are kept at 4° C. for overnight. The plates are washed with 300 μL of wash buffer ×3 and 200 μl blocking buffer (1% BSA) is added at RT for 60 min. Plates are washed with 300 μl of wash buffer ×3 and 100 μl of diluted Abs are added at different concentrations/well, followed by RT incubation for 1 hr. Plates are washed with 300 μl of wash buffer ×6 and 100 μl of 1:5000 HRP conjugated second Ab in PBS is added followed by RT incubation for 1 hr. The plates are washed with 300 μl of wash buffer ×6. Developing buffer is added and the plate is read.

Molecule	SLS Tagg 266 [1] [°C]	SLS Tagg 473 [1] [°C]	DSF TM2 [1] [°C]	DSF Tm1 [1] [°C]	Peak 1 Mass [2] [%]	Peak 1 Mode Diameter [2] [nm]	Peak 1 PDI [2]	Peak 2 Mass [2] [%]	KD value compared with the chimeric (antigen)	Rmax (antigen)	koff (antigen)	kon (antigen)	Main Peak (%) [3] [%]	OTHER (%) [3] [%]	OTHER (%) [4] [%]	PK#1 (%) [4] [%]	PK#2 (%) [4] [%]	PK#3 (%) [4] [%]	FACS with Ag(−) cell (MFI) (Ag(−) cell; Heating)	FACS with Ag(−) cell (MFI) (Ag(−) cell; Non-Heating)	other results
B1	73.7	74.7	83.2	69.9	100	9.68	0.141	0	same KD value to the chimeric	0.756	0.000806	1.00E+05	89.1	10.8	2.7	21.7	6.9	68.7	3.29	3.23	comparison of humanized antibodies by Table G [2]: superior to huPIIO-1VH1VL1; BV ELISA with purified IgG, raw BV binding data (Baculovirus; Ab. Conc. 0.15625 ug/ml): 14.5; BV ELISA with purified IgG, raw BV binding data (Baculovirus; Ab. Conc. 0.3125 ug/ml): 14.6; BV ELISA with purified IgG, raw BV binding data (Baculovirus; Ab. Conc. 0.625 ug/ml): 15.6; BV ELISA with purified IgG, raw BV binding data (Baculovirus; Ab. Conc. 1.25 ug/ml): 18.3; BV ELISA with purified IgG, raw BV binding data (Baculovirus; Ab. Conc. 2.5 ug/ml): 17.8; BV ELISA with purified IgG, raw BV binding data (Baculovirus; Ab. Conc. 5 ug/ml): 30.8; BV ELISA with purified IgG, raw BV binding data (Baculovirus; Ab. Conc. 10 ug/ml): 82.7; BV ELISA with purified IgG, raw BV binding data (Baculovirus; Ab. Conc. 20 ug/ml): 161.0
B2	74.2	74.9	83.7	70.2	99.95	9.68	1.228	0	same KD value to the chimeric	0.791	0.00081	1.01E+05	97.6	2.4	0.9	5.6	23.2	70.4	3.36	3.31	PDI compared with WT [2]: slight worse than WT; BV ELISA with purified IgG, raw BV binding data (Baculovirus; Ab. Conc. 0.15625 ug/ml): 15.0; BV ELISA with purified IgG, raw BV binding data (Baculovirus; Ab. Conc. 0.3125 ug/ml): 16.2; BV ELISA with purified IgG, raw BV binding data (Baculovirus; Ab. Conc. 0.625 ug/ml): 14.7; BV ELISA with purified IgG, raw BV binding data (Baculovirus; Ab. Conc. 1.25 ug/ml): 16.0; BV ELISA with purified IgG, raw BV binding data (Baculovirus; Ab. Conc. 2.5 ug/ml): 18.3; BV ELISA with purified IgG, raw BV binding data (Baculovirus; Ab. Conc. 5 ug/ml): 24.9; BV ELISA with purified IgG, raw BV binding data (Baculovirus; Ab. Conc. 10 ug/ml): 52.7; BV ELISA with purified IgG, raw BV binding data (Baculovirus; Ab. Conc. 20 ug/ml): 157.2
